For 42 variants, abundance fitness results are on record in the Human Domainome abundance scans (Beltran et al. 2025).

± gives the uncertainty stated by the source.

The chains are these.
B1: Tumor protein p73, residues 487 to 549; numbered along this chain, O15350 (parent)
chain: YHADPSLVSFLTGLGCPNCIEYFTSQGLQSIYHLQNLTIEDLGALKIPEQYRMTIWRGLQDLK

The series covers variants of B1. Put plainly: abundance fitness (aPCA) (normalised: wild type 0, dead -1); higher = more abundant; growth selection in yeast, the domain comes from the species named. Conditions: Homo sapiens.
On to YHADPSLVSFLTGLGCPNCIEYFTSQGLQSIYHLQNLTIEDLGALKIPEQYMMTIWRGLQDLK [R52M], for which the abundance fitness is -0.146 ± 0.063.

Consider YHADPSLVSFLTGLGCPNCIEYFTSQGLQSIYHLQNLTIEDLGALKIPEQYHMTIWRGLQDLK [R52H], for which the abundance fitness was determined as 0.054 ± 0.061.

As for YHADPSLVSFLTGLGCPNCIEYFTSQGLQSIYHLQNLTIEDLGALKIPEQYYMTIWRGLQDLK [R52Y], the abundance fitness stood at 0.095 ± 0.24.

For the variant YHADPSLVSFLTGLGCPNCIEYFTSQGLQSIYHLQNLTIEDLGALKIPEQYEMTIWRGLQDLK [R52E], the abundance fitness is -0.075 ± 0.051.

Consider YHADPSLVSFLTGLGCPNCIEYFTSQGLQSIYHLQNLTIEDLGALKIPEQYPMTIWRGLQDLK [R52P], for which the abundance fitness is -0.755 ± 0.095.

With YHADPSLVSFLTGLGCPNCIEYFTSQGLQSIYHLQNLTIEDLGALKIPEQYQMTIWRGLQDLK [R52Q], the abundance fitness was -0.019 ± 0.046.

For YHADPSLVSFLTGLGCPNCIEYFTSQGLQSIYHLQNLTIEDLGALKIPEQYSMTIWRGLQDLK [R52S], the abundance fitness was -0.066 ± 0.05.

YHADPSLVSFLTGLGCPNCIEYFTSQGLQSIYHLQNLTIEDLGALKIPEQYDMTIWRGLQDLK [R52D]: the abundance fitness was -0.425 ± 0.47.

With YHADPSLVSFLTGLGCPNCIEYFTSQGLQSIYHLQNLTIEDLGALKIPEQYWMTIWRGLQDLK [R52W], the abundance fitness was -0.082 ± 0.048.

With YHADPSLVSFLTGLGCPNCIEYFTSQGLQSIYHLQNLTIEDLGALKIPEQYFMTIWRGLQDLK [R52F], the abundance fitness was -0.53 ± 0.42.

On to YHADPSLVSFLTGLGCPNCIEYFTSQGLQSIYHLQNLTIEDLGALKIPEQYGMTIWRGLQDLK [R52G], for which the abundance fitness was -0.114 ± 0.046.

For the variant YHADPSLVSFLTGLGCPNCIEYFTSQGLQSIYHLQNLTIEDLGALKIPEQYCMTIWRGLQDLK [R52C], the abundance fitness is -0.131 ± 0.11.

In the case of YHADPSLVSFLTGLGCPNCIEYFTSQGLQSIYHLQNLTIEDLGALKIPEQYIMTIWRGLQDLK [R52I], the abundance fitness was determined as 0.2 ± 0.073.

For YHADPSLVSFLTGLGCPNCIEYFTSQGLQSIYHLQNLTIEDLGALKIPEQYTMTIWRGLQDLK [R52T], the abundance fitness worked out at 0.009 ± 0.045.

YHADPSLVSFLTGLGCPNCIEYFTSQGLQSIYHLQNLTIEDLGALKIPEQYLMTIWRGLQDLK [R52L]: the abundance fitness amounted to 0.004 ± 0.042.

With YHADPSLVSFLTGLGCPNCIEYFTSQGLQSIYHLQNLTIEDLGALKIPEQYRMTAWRGLQDLK [I55A], the abundance fitness is -0.918 ± 0.11.

Take YHADPSLVSFLTGLGCPNCIEYFTSQGLQSIYHLQNLTIEDLGALKIPEQYRMTCWRGLQDLK [I55C]: the abundance fitness is -0.459 ± 0.079.

As for YHADPSLVSFLTGLGCPNCIEYFTSQGLQSIYHLQNLTIEDLGALKIPEYYRMTIWRGLQDLK [Q50Y], the abundance fitness is -0.297 ± 0.086.

As to YHADPSLVSFLTGLGCPNCIEYFTSQGLQSIYHLQNLTIEDLGALKIPEFYRMTIWRGLQDLK [Q50F], the abundance fitness is -0.23 ± 0.087.

As for YHADPSLVSFLTGLGCPNCIEYFTSQGLQSIYHLQNLTIEDLGALKIPEWYRMTIWRGLQDLK [Q50W], the abundance fitness was -0.135 ± 0.03.

Consider YHADPSLVSFLTGLGCPNCIEYFTSQGLQSIYHLQNLTIEDLGALKIPECYRMTIWRGLQDLK [Q50C], for which the abundance fitness is 0.096 ± 0.059.

Regarding YHADPSLVSFLTGLGCPNCIEYFTSQGLQSIYHLQNLTIEDLGALKIPEMYRMTIWRGLQDLK [Q50M], the abundance fitness was determined as 0.058 ± 0.052.

On to YHADPSLVSFLTGLGCPNCIEYFTSQGLQSIYHLQNLTIEDLGALKIPEDYRMTIWRGLQDLK [Q50D], for which the abundance fitness is -0.106 ± 0.2.

With YHADPSLVSFLTGLGCPNCIEYFTSQGLQSIYHLQNLTIEDLGALKIPEIYRMTIWRGLQDLK [Q50I], the abundance fitness is -0.192 ± 0.15.

Consider YHADPSLVSFLTGLGCPNCIEYFTSQGLQSIYHLQNLTIEDLGALKIPERYRMTIWRGLQDLK [Q50R], for which the abundance fitness was determined as 0.051 ± 0.034.

Consider YHADPSLVSFLTGLGCPNCIEYFTSQGLQSIYHLQNLTIEDLGALKIPEVYRMTIWRGLQDLK [Q50V], for which the abundance fitness worked out at 0.038 ± 0.035.

Regarding YHADPSLVSFLTGLGCPNCIEYFTSQGLQSIYHLQNLTIEDLGALKIPEKYRMTIWRGLQDLK [Q50K], the abundance fitness came out at 0.06 ± 0.052.

With YHADPSLVSFLTGLGCPNCIEYFTSQGLQSIYHLQNLTIEDLGALKIPEHYRMTIWRGLQDLK [Q50H], the abundance fitness is 0.039 ± 0.065.

Take YHADPSLVSFLTGLGCPNCIEYFTSQGLQSIYHLQNLTIEDLGALKIPENYRMTIWRGLQDLK [Q50N]: the abundance fitness was 0.009 ± 0.07.

With YHADPSLVSFLTGLGCPNCIEYFTSQGLQSIYHLQNLTIEDLGALKIPESYRMTIWRGLQDLK [Q50S], the abundance fitness amounted to 0.045 ± 0.034.

Take YHADPSLVSFLTGLGCPNCIEYFTSQGLQSIYHLQNLTIEDLGALKIPETYRMTIWRGLQDLK [Q50T]: the abundance fitness is -0.034 ± 0.05.

As for YHADPSLVSFLTGLGCPNCIEYFTSQGLQSIYHLQNLTIEDLGALKIPEPYRMTIWRGLQDLK [Q50P], the abundance fitness is -0.132 ± 0.054.

For the variant YHADPSLVSFLTGLGCPNCIEYFTSQGLQSIYHLQNLTIEDLGALKIPELYRMTIWRGLQDLK [Q50L], the abundance fitness was -0.036 ± 0.037.

For the variant YHADPSLVSFLTGLGCPNCIEYFTSQGLQSIYHLQNLTIEDLGALKIPEGYRMTIWRGLQDLK [Q50G], the abundance fitness is 0.111 ± 0.04.

In the case of YHADPSLVSFLTGLGCPNCIEYFTSQGLQSIYHLQNLTIEDLGALKIPEAYRMTIWRGLQDLK [Q50A], the abundance fitness worked out at 0.08 ± 0.035.

Regarding YHADPSLVSFLTGLGCPNCIEYFTSQGLQSIYHLQNLTIEDLGALKIPEEYRMTIWRGLQDLK [Q50E], the abundance fitness stood at 0.047 ± 0.035.

Turning to YHADPSLVSFLTGLGCPNCIEYFTSQGLQSIYHLQNLTIEDLGALKIPEQFRMTIWRGLQDLK [Y51F], the abundance fitness was -0.032 ± 0.14.

For the variant YHADPSLVSFLTGLGCPNCIEYFTSQGLQSIYHLQNLTIEDLGALKIPEQVRMTIWRGLQDLK [Y51V], the abundance fitness is -0.06 ± 0.062.

As for YHADPSLVSFLTGLGCPNCIEYFTSQGLQSIYHLQNLTIEDLGALKIPEQSRMTIWRGLQDLK [Y51S], the abundance fitness was -0.126 ± 0.055.

YHADPSLVSFLTGLGCPNCIEYFTSQGLQSIYHLQNLTIEDLGALKIPEQKRMTIWRGLQDLK [Y51K]: the abundance fitness was found to be 0.034 ± 0.1.

Take YHADPSLVSFLTGLGCPNCIEYFTSQGLQSIYHLQNLTIEDLGALKIPEQQRMTIWRGLQDLK [Y51Q]: the abundance fitness was -0.124 ± 0.1.

YHADPSLVSFLTGLGCPNCIEYFTSQGLQSIYHLQNLTIEDLGALKIPEQMRMTIWRGLQDLK [Y51M]: the abundance fitness is -0.189 ± 0.048.
